Data on six molecules can be found in US20090075889A1 (YEDA RESEARCH AND DEVELOPMENT, published 2009).

To fix the notation:
B1: IREN 10B (other)
chain: MSGSQNNDKRQFLLERLLDAVKQCQIRFGGRKEIASDSDSRVTCLCAQFEAVLQHGLKRSRGLALTAAAIKQAAGFASKTETEPVFWYYVKEVLNKHELQRFYSLRHIASDVGRGRAWLRCALNEHSLERYLHMLLADRCRLSTFYEDWSFVMDEERSSMLPTMAAGLNSILFAINIDNKDLNGQSKFAPTVSDLLKESTQNVTSLLKESTQGVSSLFREITASSAVSILIKPEQETDPLPVVSRNVSADAKCKKERKKKKKVTNIISFDDEEDEQNSGDVFKKTPGAGESSEDNSDRSSVNIMSAFESPFGPNSNGSQSSNSWKIDSLSLNGEFGYQKLDVKSIDDEDVDENEDDVYGNSSGRKHRGHSESPEKPLEGNTCLSQMHSWAPLKVLHNDSDILFPVSGVGSYSPADAPLGSLENGTGPEDHVLPDPGLRYSVEASSPGHGSPLSSLLPSASVPESMTISELRQATVAMMNRKDELEEENRSLRNLLDGEMEHSAALRQEVDTLKRKVAEQEERQGMKVQALARENEVLKVQLKKYVGAVQMLKREGQTAEVPNLWSVDGEVTVAEQKPGEIAEELASSYERKLIEVAEMHGELIEFNERLHRALVAKEALVSQMRQELIDLRGPVPGDLSQTSEDQSLSDFEISNRALINVWIPSVFLRGKAANAFHVYQVYIRIKDDEWNIYRRYTEFRSLHHKLQNKYPQVRAYNFPPKKAIGNKDAKFVEERRKQLQNYLRSVMNKVIQMVPEFAASPKKETLIQLMPFFVDITPPGEPVNSRPKAASRFPKLSRGQPRETRNVEPQSGDL
notes: Splice isoform of IREN; Used as both bait and prey in yeast two-hybrid; also called clone 10B
B2: IREN (other)
chain: MSGSQNNDKRQFLLERLLDAVKQCQIRFGGRKEIASDSDSRVTCLCAQFEAVLQHGLKRSRGLALTAAAIKQAAGFASKTETEPVFWYYVKEVLNKHELQRFYSLRHIASDVGRGRAWLRCALNEHSLERYLHMLLADRCRLSTFYEDWSFVMDEERSSMLPTMAAGLNSILFAINIDNKDLNGQSKFAPTVSDLLKESTQNVTSLLKESTQGVSSLFREITASSAVSILIKPEQETDPLPVVSRNVSADAKCKKERKKKKKVTNIISFDDEEDEQNSGDVFKKTPGAGESSEDNSDRSSVNIMSAFESPFGPNSNGSQSSNSWKIDSLSLNGEFGYQKLDVKSIDDEDVDENEDDVYGNSSGRKHRGHSESPEKPLEGNTCLSQMHSWAPLKVLHNDSDILFPVSGVGSYSPADAPLGSLENGTGPEDHVLPDPGLRYSVEASSPGHGSPLSSLLPSASVPESMTISELRQATVAMMNRKDELEEENRSLRNLLDGEMEHSAALRQEVDTLKRKVAEQEERQGMKVQALASYLCYFVRRF
notes: Tested in yeast two-hybrid as a hybrid protein; the fusion partner is not included in the chain; also called IκB REgulator; IREN protein
B5: human TRAF2 (other, UniProt Q12933 1-501, looked up)
chain: MAAASVTPPGSLELLQPGFSKTLLGTKLEAKYLCSACRNVLRRPFQAQCGHRYCSFCLASILSSGPQNCAACVHEGIYEEGISILESSSAFPDNAARREVESLPAVCPSDGCTWKGTLKEYESCHEGRCPLMLTECPACKGLVRLGEKERHLEHECPERSLSCRHCRAPCCGADVKAHHEVCPKFPLTCDGCGKKKIPREKFQDHVKTCGKCRVPCRFHAIGCLETVEGEKQQEHEVQWLREHLAMLLSSVLEAKPLLGDQSHAGSELLQRCESLEKKTATFENIVCVLNREVERVAMTAEACSRQHRLDQDKIEALSSKVQQLERSIGLKDLAMADLEQKVLEMEASTYDGVFIWKISDFARKRQEAVAGRIPAIFSPAFYTSRYGYKMCLRIYLNGDGTGRGTHLSLFFVVMKGPNDALLRWPFNQKVTLMLLDQNNREHVIDAFRPDVTSSSFQRPVNDMNIASGCPLFCPVSKMEAKNSYVRDDAIFIKAIVDLTGL
notes: range 1-501; the fusion partner is not included in the chain; also called hTRAF2; full length TRAF2

Data set [1] concerns the molecule itself. The experiment in a line: yeast two-hybrid, bait IREN 10B, prey IREN 10B.
The data set “yeast two-hybrid” concerns the molecule itself. Put plainly: yeast two-hybrid.
Data set [2] concerns the target B5. Put plainly: yeast two-hybrid, bait TRAF2, prey IREN198-541. Here is the method:
(§1) Positive clones picked up in the two hybrid screen were subjected to lacZ color development test in SFY526 yeast cells, following Clontech Laboratories' manual (for details see above mentioned publications and patent applications). In brief, transformants were allowed to grow at 30° C. for 2-4 days until reaching about 2 mm in diameter, then were transferred onto Whatman filters. The filters went through a freeze/thaw treatment in order to permeabilize the cells, then soaked in a buffer (16.1 mg/ml Na₂HP0₄ 7H₂0; 5.5 mg/ml NaH₂P0₄′H₂0; 0.75 mg/ml KCl; 0.75 mg/ml MgS0₄′7H₂O, pH=7) containing 0.33 mg/ml X-gal and 0.35 mM β-mercaptoethanol. Colonies were monitored for development of blue color which is an indication for induction of β-galactosidase.
(§2) In order to narrow down the region on the TRAF2 molecule which interacts with IREN two additional constructs were made. One construct comprising the N-terminal part of the TRAF2 molecule, amino acids 1 to 224 designated RING₁₋₂₂₄ comprising the Ring finger and the zinc finger motifs. The second construct included only the C-terminal part of TRAF2, amino acids 225 to 501, covering the “TRAF-domain” as well as an additional 42 amino acids. These two constructs were used as baits in two hybrid tests.

For data set [3], the target named is B2. The experiment in a line: yeast two-hybrid, bait TRAF2225-501, prey IREN. Here is the method:
as §1, §2

Data set [4] deals with B2. The experiment in a line: yeast two-hybrid, bait TRAF2, prey IREN. Here is the method:
as §1, §2

The data set “IREN 10B” addresses B1. The experiment in a line: yeast two-hybrid, bait TRAF2, prey IREN 10B.
Data set [5] deals with B5. Put plainly: yeast two-hybrid, bait TRAF2, prey IREN198-388. Here is the method:
as §1, §2

For B1, the binding result in data set [1] is recorded as “binds”.
In the case of B2, the binding result in the data set “yeast two-hybrid” is recorded as “no binding”.

B3: IREN198-541 (other)
chain: ESTQNVTSLLKESTQGVSSLFREITASSAVSILIKPEQETDPLPVVSRNVSADAKCKKERKKKKKVTNIISFDDEEDEQNSGDVFKKTPGAGESSEDNSDRSSVNIMSAFESPFGPNSNGSQSSNSWKIDSLSLNGEFGYQKLDVKSIDDEDVDENEDDVYGNSSGRKHRGHSESPEKPLEGNTCLSQMHSWAPLKVLHNDSDILFPVSGVGSYSPADAPLGSLENGTGPEDHVLPDPGLRYSVEASSPGHGSPLSSLLPSASVPESMTISELRQATVAMMNRKDELEEENRSLRNLLDGEMEHSAALRQEVDTLKRKVAEQEERQGMKVQALASYLCYFVRRF
notes: Two-hybrid prey construct; also called N-terminal deletion mutant of IREN; IRENΔN
On to B3, for which, in the data set with human TRAF2 [2], the binding result was “binds”.

B4: TRAF2225-501 (other, human, UniProt Q12933 225-501, looked up)
chain: ETVEGEKQQEHEVQWLREHLAMLLSSVLEAKPLLGDQSHAGSELLQRCESLEKKTATFENIVCVLNREVERVAMTAEACSRQHRLDQDKIEALSSKVQQLERSIGLKDLAMADLEQKVLEMEASTYDGVFIWKISDFARKRQEAVAGRIPAIFSPAFYTSRYGYKMCLRIYLNGDGTGRGTHLSLFFVVMKGPNDALLRWPFNQKVTLMLLDQNNREHVIDAFRPDVTSSSFQRPVNDMNIASGCPLFCPVSKMEAKNSYVRDDAIFIKAIVDLTGL
notes: range 225-501; Two-hybrid bait construct; also called C-terminal part of TRAF2, amino acids 225 to 501; C-terminal construct comprising the TRAF domain
Consider B4, for which the binding result with IREN [3] is “binds”.
For B5, the binding result in the data set with IREN [4] and with IREN 10B was “binds” in each case.

B6: IREN198-388 (other)
chain: ESTQNVTSLLKESTQGVSSLFREITASSAVSILIKPEQETDPLPVVSRNVSADAKCKKERKKKKKVTNIISFDDEEDEQNSGDVFKKTPGAGESSEDNSDRSSVNIMSAFESPFGPNSNGSQSSNSWKIDSLSLNGEFGYQKLDVKSIDDEDVDENEDDVYGNSSGRKHRGHSESPEKPLEGNTCLSQMHS
notes: Two-hybrid prey construct
For the molecule B6, the binding result with human TRAF2 [5] is “binds”.
